Tested on: MS2 coat protein
Assay: apparent KD of MS2 coat protein; higher = weaker reporter binding
Settings: Eterna round: R107
Outline: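 Each design's apparent KD comes from the median of binding-curve fits to its normalised clusters. Those clusters carried RNA switches transcribed on-chip from Illumina sequencing clusters. SNAP-549-labelled MS2 coat protein was titrated onto them in twofold steps (0.7 or 1.5 nM to 3 µM; per step 0.8–1.5 h down to 10–20 min). Conditions were 100 mM Tris-HCl pH 7.5, 80 mM KCl, 4 mM MgCl2, without or with constant ligand.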

[1] = input ligand: theophylline 20 uM
[2] = input ligand: theophylline 2 mM
[3] = input ligand: tryptophan 2.4 mM

| Sequence | apparent KD of MS2 coat protein (input ligand: arginine 13.2 mM) | apparent KD of MS2 coat protein (input ligand: none) | apparent KD of MS2 coat protein [1] | apparent KD of MS2 coat protein [2] | apparent KD of MS2 coat protein [3] |
| --- | --- | --- | --- | --- | --- |
| UGUGCAGGAUGUGUAAAAGGUCUUGGGCAUCGAGGACCGGUACGGCCGCCACUCGGCUGUACAUGAGGAUCACCCAUGUCAGGGU [#1 Same State - Tryptophan A Attempt #21 (HarryS)] | 30.5 nM | 220 nM | 554 nM | 694 nM | 737 nM |
| GGAUUCGGCACGGCCGCCACUGCGGUGGUGUGACAUGAGGAUCACCCAUGUUGUCAUGCGGCCCUUAGGACCGGGUGGCGUUUCC [#1 Exclusion - Tryptophan B Attempt #21 (HarryS)] | 47.1 nM |  | 76.2 nM | 73.3 nM |  |
| ACAUGAGGAUCACCCAUGUAGCGUAGGGAAGGAGCGGAAUAAAGUCCAGGUAGGUCGCCCAUAUGAUGAUCUCACUUAUUAUCGA [#12 Same State - Arginine A] | 27.7 nM | 31 nM | 42.5 nM | 42.2 nM | 30.5 nM |
| AAAUAAAUAACUGAUACCAGUGGACUGACAUGAGGAUCACCCAUGUUGGGUUUUGUUGUCCACCCUUGGCAGCAGGGAUAUAAAA [#24 Exclusion-TheophyllineB] | 24.4 nM | 38.5 nM | 54.7 nM | 70.9 nM | 43.4 nM |
| AUUUAUAGUUGUGAUACCAGACUUACAUGAGGAUCACCCAUGUUACUUAAAUGUUUUGAUGUCCCUUGGCAGCACUGUUUUUUUA [JR_Nu_ExcTheophyB_Sub029] | 16.1 nM |  | 22.6 nM |  | 16.4 nM |
| AGCUCAUAGAGUGAUACCAGACUACAUGAGGAUCACCCAUGUUACUUUUAAAUAUCAUUUGUCCCUUGGCAGCACAUGAAGAGCA [JR_Nu_ExcTheophyB_Sub017] | 18.3 nM |  | 18.5 nM |  | 13.8 nM |
| CGGCCCUCACCUGAGGAUCACCCGGGUGAUACCAGCCUGGAAACAGGCCCUUGGCAGCACCAGGUCAUCAAAGAUGACCAAGCCG [TheoAX 26 #OpenEnded #AlternativeMS2] | 21.3 nM | 97.5 nM | 110 nM | 2630 nM | 105 nM |
| UGGUACAUGAGGAUCACCCAUGUUCCAGAUACCAGACUCCCGGUGGUCCCUUGGCAGCUGGUGGUACAUGAGGAUCACCCAUGUG [Exclusion Theophylline A GF17] | 28.5 nM |  | 44.7 nM |  | 30.8 nM |
| AUUAAGGAUAUGUAGAAGGCGGAGAAGAGACGAGGACCGGUACGGCCGCCACUCGUGUUAGUUAACAUGAGGAUCACCCAUGUAA [#06 Tryptophan A Same State] | 14.3 nM | 60.7 nM | 72.3 nM | 112 nM | 17.1 nM |
| UCGCCCAGGAUGGAAUCCUGGGAUAUGGAAGGAGCGCUGAUGCCAGCAGGUAGGUCGCCAACGGACAUGAGGAUCACCCAUGUAC [Same State - Arginine A (Freestyle 9)] | 17.7 nM | 19.1 nM | 28.8 nM | 21.2 nM | 18.6 nM |
| AAUAAAUCGCCUGAUACCAGCGCUGGCGGACAUGAGGAUCACCCAUGUGUUACAGGCGGACGCCCUUGGCAGCGGAGCGGGAUCU [U-Shape] | 16.2 nM | 20.2 nM | 21.4 nM | 23 nM | 19.6 nM |
| AGAUUACAUGUUAUAAUACGGUAUACUGAUACCAGUGUUUCUAUUCACCCUUGGCAGCAGCAACAUGAGGAUCACCCAUGUAUUA [JR_SSTheophyA_Sub017] | 14.9 nM |  | 21.4 nM |  | 17.7 nM |
| ACAUGAGGAUCACCCAUGUAAUCAUCAGAAGGAGCGUGGAAUAACACAGGUAGGUCGCUGAUGUUAUAUUAAUCUUAUUCGUAAA [JR_ExcArginiA_Sub003] | 22 nM | 13.6 nM | 18.7 nM | 13.2 nM | 14.2 nM |
| AGUCUUAAUGGAAGGAGCGCAGUCAUAACAUGAGGAUCACCCAUGUCGAUGUGAGGGUCAUUGCAGGUAGGUCGCCAUACUAAGA [Same State - Arginine B (Freestyle 4)] | 24.7 nM | 31 nM | 25 nM | 25.3 nM | 32.6 nM |
| ACAUGAGGAUCACCCAUGUAGUGGCACGAUACCAGCUGAUCCCGUGGCCCUUGGCAGCGUCCGGUGUGGUGCGCCGGGUUGGAGC [BBBMULLIN] | 38 nM |  | 77.4 nM |  | 48.9 nM |
| GUCGGUACGUCGGCAAAGCCGAUGUGCCAGCGAGGACCGGUACGGCCGCCACUCGUACAUGAGGAUCACCCAUGUCCGGUCCGGC [Omei Trp SS A C v2] | 32.5 nM |  | 84.4 nM | 92.4 nM |  |
| CACGCACGAUCGGCCGCCACUCAUGUAGCUUACAUGAGGAUCACCCAUGUAUUUUCUUUCUUUUAGAGGACCGGGAUCGUGCGUG [#03 Same State - Tryptophan B] | 25 nM |  | 48.5 nM | 35 nM |  |
| GUAGGUCAGUGAUCCCGACCUACACUGGAAGGAGCGAGCGAAAGCUCAGGUAGGUCGCCAGAAACAUGAGGAUCACCCAUGUAAU [(A)''-(M)'-(A)'-(Arg1)-(Arg2)-(M1)-(M2)_Design1] | 76.1 nM | 172 nM | 153 nM | 219 nM | 118 nM |
| AACCGAGGCUAUCCUCUAAGAAUAUGUGAUACCAGAAUAAUUUUAUUCCCUUGGCAGCAUGACAUGAGGAUCACCCAUGUGUCUU [SSTheo A #7] | 70 nM |  | 136 nM |  | 136 nM |

Reference: the supplement of paper PMC9170038
